# Test results published in article PMC9976466, “Insights into the structure-function relationship of the NorQ/NorD chaperones from Paracoccus denitrificans reveal shared principles of interacting MoxR AAA+/VWA domain proteins” (BMC Biology, 2023).
# Numbering of substitutions follows the chain as printed. Numbers in names are those of the source. Where “and” joins values, the source holds several entries; their conditions need not be identical. Equal entries are not always repeated.
# B1: untagged NorQ^WB (E109Q), co-expressed with 6-His-tagged NorD (enzyme, Paracoccus denitrificans, UniProt Q51664 1-270, looked up)
# chain: MNAHVKTQGNGAVDAPFYLPQGDEVAVFEAAAANDLPVLLKGPTGCGKTRFVAHMAARLGRPLYTVACHDDLSAADLIGRYLLKGGETVWTDGPLTRAVREGAICYLDQVVEARKDVTVVLHPLTDDRRILPIDRTGEEIEAAPGFMLVASYNPGYQNILKTLKPSTRQRFVAMEFDFPEPAREVEIVARESGLDRDRTLGLVRLAGKIRGLKGQDLEEGVSTRLVVYAASLTRRGMNLDRAIEAAMIEPLTDDAEVKRGLRDLAAAIFG
# notes: NorQ of Paracoccus denitrificans, Uniprot Q51663, Walker B variant; the norQ gene was cloned into a pET21a backbone with the T7 RBS; Hexameric within the NorQ^WBD complex (BN-PAGE, cryo-EM); trimer to hexamer after addition of ATP; also called NorQ^WB (in NorQ^WBD; Q^WBD)
# B2: wildtype 6-His-tagged NorQ (enzyme, Paracoccus denitrificans, UniProt Q51664 1-270, looked up)
# chain: B1 chain with Q109E
# notes: NorQ, MoxR-class AAA+ ATPase of Paracoccus denitrificans, Uniprot Q51663; the norQ gene was cloned into a pET21a backbone; about 30 kDa; Expressed without NorD; Forms several oligomeric states from monomer to hexamer; source: dialysis
# Legend:
# [1] = target: T1, NorQ (Paracoccus denitrificans, UniProt Q51664, E109Q); assay: Blue Native PAGE, ATP-induced shift to hexamer; assay type: binding; details: 2 mM ATP, 20 mM MgCl2; Walker B variant, ATPase activity lost
# T1 construct: full length, N-terminal 6-His tag (pET-hQ), expressed in E. coli BL21(DE3); ~30 kDa monomer, several oligomeric states up to hexamer
# [2] = target: the molecule itself; assay: native gel or EMSA; BN-PAGE of purified NorQ^WBD (~10 μg per lane) after addition of ATP
# [3] = target: 6-His-tagged NorD (Paracoccus denitrificans); assay: as above
# [4] = target: the molecule itself; assay: native gel or EMSA + SEC; BN-PAGE (NativePAGE 4-16% Bis-Tris, 4 °C) of purified NorQ (14 μg) and NorQ^WB (18 μg), with 2 mM ATP and 20 mM MgCl2 in Fig. 2b; SEC on Superdex 200 in 20 mM TRIS/HCl pH 8, 300 mM NaCl, 10% glycerol
molecule,measurement,setting,value
Nc1ncnc2c1ncn2[C@@H]1O[C@H](COP(=O)(O)OP(=O)(O)OP(=O)(O)O)[C@@H](O)[C@H]1O [ATP],"Blue Native PAGE, ATP-induced shift to hexamer",[1],clear shifting of the oligomerization state to the hexamer (Fig. 2b) for the NorQ^WB
B1,stoichiometry N,[2],3
same,stoichiometry N,[3],3
B2,stoichiometry N,[4],6 and 3 and 4 and 5
